Key:
MS2 coat protein [1] = assay: apparent KD of MS2 coat protein; designed switch direction (-1 OFF switch, 1 ON switch): 1; higher = weaker reporter binding
Procedure, shortened: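 The buffer was Tris-HCl pH 7.5 with KCl, MgCl2, BSA, DTT, tRNA and Tween-20. In it, SNAP-549-labelled MS2 coat protein was titrated in doubling steps from 0.7 or 1.5 nM to 3 µM over chip-bound RNA switches transcribed by stalled E. coli RNA polymerase on Illumina chips. Apparent KD is the per-design median over clusters of curve fits to normalised fluorescence.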

MS2 coat protein [2] = assay: apparent KD of MS2 coat protein; higher = weaker reporter binding; details: Eterna round: R107
Procedure, shortened: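 In 100 mM Tris-HCl pH 7.5 with 80 mM KCl and 4 mM MgCl2, and without or with constant ligand, SNAP-549-labelled MS2 coat protein was titrated in twofold steps from 0.7 or 1.5 nM to 3 µM. Per-step times went from 0.8–1.5 h down to 10–20 min. The RNA switches were transcribed on-chip from Illumina sequencing clusters, and apparent KD is the per-design median of normalised cluster binding-curve fits.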

[3] = input ligand: microRNA oligo, concentration not stated
[4] = Eterna round: R95, input ligand: FMN 200 uM
[5] = Eterna round: R95, input ligand: microRNA oligo, concentration not stated
[6] = Eterna round: R95, input ligand: none
[7] = input ligand: theophylline 20 uM
[8] = input ligand: theophylline 2 mM
[9] = input ligand: tryptophan 2.4 mM

| Sequence | apparent KD of MS2 coat protein (MS2 coat protein [1]; input ligand: FMN 200 uM) [nM] | apparent KD of MS2 coat protein (MS2 coat protein [1]; [3]) [nM] | apparent KD of MS2 coat protein (MS2 coat protein [1]; input ligand: none) [nM] | apparent KD of MS2 coat protein (MS2 coat protein [2]; input ligand: arginine 13.2 mM) [nM] | apparent KD of MS2 coat protein (MS2 coat protein [2]; [7]) [nM] | apparent KD of MS2 coat protein (MS2 coat protein [2]; [8]) [nM] | apparent KD of MS2 coat protein (MS2 coat protein [2]; [9]) [nM] | other results |
| --- | --- | --- | --- | --- | --- | --- | --- | --- |
| AAAAAACAUGAGGAUCACCCAUGUAAAAAUAUGGGAGGAUAUUCAAACACGAAAGUGAAAGAAGAAGGCCUAAAAA [SS! MT 18] (Eterna round: R96, puzzle: Same State 1) | 17.5 | 56.7 | 81.3 | – | – | – | – | – |
| AAAAAACAUGAGGAUCACCCAUGUCAAAAGACGUGAGGAUAUGUACAGACUUCGGUCUGUACAGAAGGCACGAAAA [SS1 - 1037] (Eterna round: R96, puzzle: Same State 1) | 17.6 | 19.1 | 26.9 | – | – | – | – | – |
| AAAAGCGACGUAGGAUAUCCUCUACAUGCGUAAGGAGAAGGAUGCGCAACAUGAGGAUCACCCAUGUAAAACCAGCACUACUGG [Zalaendi] (Eterna round: R96, puzzle: Same State NG 1) | 53.1 | 32.6 | 44.9 | – | – | – | – | – |
| AAAAUAAAAUAAAAGGAUAUAAAAUAAAAUACAUGAGGAUCACCCAUGUAUAAAAUAAAAAAAUAAAAGAAGGAAUAAAAAUAAA [SS2 504: MS2 4] (Eterna round: R96, puzzle: Same State 2) | 28.3 | 22.9 | 26.7 | – | – | – | – | – |
| AAAAUGGUAUGUUACAUGAGGAUCACCCAUGUACUCUCCUCUGAGGAUAUGGGAAUGUUGAAAAACCAGAAGGCAGACAUCCAA [AK SSNG3-V2-22] (Eterna round: R96, puzzle: Same State NG 3) | 139 | 177 | 192 | – | – | – | – | – |
| AAACACAGCAUAACGCCGUGACAUGAGGAUCACCCAUGUACACAGGAUAUCAUGGCAUAACGCCAUGAGAAGGGUGAUCAAGAC [Raorma] (Eterna round: R96, puzzle: Same State NG 3) | 732 | 77 | 78.8 | – | – | – | – | – |
| AAAGCACAUGAGGAUCACCCAUGUGGAAAUAACACAGGAUAUCUGACCGAAACUAAGGCGAGAGAAGGGUGACCUA [Engeerbi] (puzzle: Same State 1) | – | – | – | – | – | – | – | apparent KD of MS2 coat protein (MS2 coat protein [1]; [4]): 148 nM; apparent KD of MS2 coat protein (MS2 coat protein [1]; [5]): 62.8 nM; apparent KD of MS2 coat protein (MS2 coat protein [1]; [6]): 78.9 nM |
| AAAGGAUGAUGUUACAUGAGGAUCACCCAUGUUGUGAUAACUAAGGAUAUGUGUUUAACUAGUUAAUAGAAGGUAGGAUCAUAA [AK SSNG3-V2-3] (Eterna round: R96, puzzle: Same State NG 3) | 150 | 84.2 | 118 | – | – | – | – | – |
| AAAUAGCAUGGAAACAUGCUAAAAACUGUACAUGAGGAUCACCCAUGUCAUGUGUAGGCUUUUUGUUCGUCUUAUAA [Effort 12] (Eterna round: R96, puzzle: Sensor for hsa-mir-208a) | 25.5 | 12.3 | 27.8 | – | – | – | – | – |
| AAAUGUAGGAAACAACAGCAAGAGCAUGUACAUGAGGAUCACCCAUGUCAUGUACAAGCUUUUUGCUGGUCUUAUUA [ak 2 mod of one Eli's designs..] (puzzle: Sensor for hsa-mir-208a) | – | – | – | – | – | – | – | apparent KD of MS2 coat protein (MS2 coat protein [1]; [4]): 23.7 nM; apparent KD of MS2 coat protein (MS2 coat protein [1]; [5]): 31 nM; apparent KD of MS2 coat protein (MS2 coat protein [1]; [6]): 19.6 nM |
| AACAAAUACACAGGAUAUACAGUGGCAACCACUGUAGAAGGGUGGGCGGGUUCCAACAUGAGGAUCACCCAUGUACCCAAUAAC [Atbiladi] (Eterna round: R96, puzzle: Same State NG 1) | 521 | 535 | 882 | – | – | – | – | – |
| AACAUGAGGAUCACCCAUGUCAGGCCGCCGGCCUACAUGAGGAAGGAUAUAGCCUCGAAAAUUGGCUAGAAGGUCCUCAUGAAU [Letemaar] (Eterna round: R96, puzzle: Same State NG 3) | 115 | 4.24 | 26.1 | – | – | – | – | – |
| AACCGACAUGAGGAUCACCCAUGUAAAUGCAGGGCAGGAUAUCAAUCGGGAGGCCGAAAAUGAGAAGGGCCUAAAA [Onedte] (puzzle: Same State 1) | – | – | – | – | – | – | – | apparent KD of MS2 coat protein (MS2 coat protein [1]; [4]): 46.9 nM; apparent KD of MS2 coat protein (MS2 coat protein [1]; [5]): 250 nM; apparent KD of MS2 coat protein (MS2 coat protein [1]; [6]): 839 nM |
| AACCGGGAGAAGCAGGAUAUUGCCUCUUCAACAUGAGGAUCACCCAUGUAAGUAAAUUGACGAUACAAGAAGGGCUGCUCCUUAC [Raatgees] (Eterna round: R96, puzzle: Same State 2) | – | 79.1 | – | – | – | – | – | – |
| AACGUGGGCUAGCAGGAUAUACUGCGAGUAACAUGAGGAUCACCCAUGUUGUCCCGCAAGACAAUGUAGAAGGGCUGAUACCGCG [Atatlaor] (puzzle: Same State 2) | – | – | – | – | – | – | – | apparent KD of MS2 coat protein (MS2 coat protein [1]; [4]): 18.1 nM; apparent KD of MS2 coat protein (MS2 coat protein [1]; [5]): 28.4 nM; apparent KD of MS2 coat protein (MS2 coat protein [1]; [6]): 26.5 nM |
| UUACCGUAAGGUAUACCGGUCUACAAUAAUCGAGGACCGGUACGGCCGCCACUCGAUGUGUAAUCACAUGAGGAUCACCCAUGUA [Tryptophan A 19] | – | – | – | 21.1 | 27.7 | 27.4 | – | – |
| UUAGAUAUGACGGAUACCAGCGUGUUGUAGAACAUGAGGAUCACCCAUGUAGUGAUCGAGCGCCCUUGGCAGCUGGUAUGUUUGG [7.T] | – | – | – | 175 | 203 | – | 335 | – |
| UUAUAAGUACCGGUCCUCAGAUCCUCAUGACGAGGACCGGUACGGCCGCCACUCGAAACAUGAGGAUCACCCAUGUAAUAAUACU [Brourdmod08] | – | – | – | 21 | 34.5 | 33.1 | – | – |
| UUAUGAUGUUCCGAUACCAGCCAUGUGGUUCUAACUUAACAUGAGGAUCACCCAUGUACCGGCCCUUGGCAGCGGAUGUGGAUUA [Flamini] | – | – | – | 12 | 14.8 | – | 12.6 | – |
| UUCAGCUAGUCGGCCGCCACUACUUGAGGAUCACCCAGGUAGGUCCACACUGCUUCGGCAGUGAGUAGGACCGGGACUAGCUGAG | – | – | – | 31 | 32.2 | 39.4 | 272 | apparent KD of MS2 coat protein (MS2 coat protein [2]; input ligand: none): 32.8 nM |
| UUCGUUUACGGAAGGAGCGACGGACAUCGGUGAACGACGCACAUGAGGAUCACCCAUGUACGUCAGGUAGGUCGCCGUUAAGAGU [Somama] | – | – | – | 23 | 27.7 | 19.6 | 19.2 | apparent KD of MS2 coat protein (MS2 coat protein [2]; input ligand: none): 17.4 nM |
| UUCGUUUGCGGAAGGAGCGACGGACAUCGGUGAACGACGCACAUGAGGAUCACCCAUGUACGUCAGGUAGGUCGCCGCUAAGAGU [Tibira] | – | – | – | 15.5 | 22.3 | 25.2 | 19.8 | apparent KD of MS2 coat protein (MS2 coat protein [2]; input ligand: none): 18 nM |
| UUCUUUAAGUCGGCCGCCACUGAAACAUGAGGAUCACCCAUGUAAAUUUGGGAGUAGUUAUAUUACAGGACCGGGACUAUAGUAA [JR_ExcTryptoB_Sub020] | – | – | – | 34.8 | 48.8 | 51 | – | – |
| UUCUUUAAGUCGGCCGCCACUGAAACAUGAGGAUCACCCAUGUAUAUUUGUGUAUAGGUGGAUUACAGGACCGGGACUAUAGUAA [JR_ExcTryptoB_Sub023] | – | – | – | 15.1 | 20.2 | 15.2 | 14.7 | apparent KD of MS2 coat protein (MS2 coat protein [2]; input ligand: none): 14.7 nM |
| UUGAACAUGAGGAUCACCCAUGUGGAUGAUACCAGCUAAAACAUAAGCCCUUGGCAGCAUUAAAAUGAAAUAUCGAAAAGGAAAG [theeternabot_sameState_MS2_Theo_A_1] | – | – | – | 95.1 | 179 | – | 127 | – |
| UUGGCAGCAUGGGUGGCUGCCAAGGCUGAUACCAGCCACGAAAGUGGCCCUUGGCAGCAGCAAACAUGAGGAUCACCCAUGUUAA [(T)''-(M)'-(T)'-(Theo)-(Ms2)_Design3] | – | – | – | 87.2 | 105 | 104 | 93.3 | apparent KD of MS2 coat protein (MS2 coat protein [2]; input ligand: none): 86.3 nM |
| UUUAGUAUCUUAGAUACCAGUUUUGGGUGCUGAACGUCUCACAUGAGGAUCACCCAUGUAAACCCUUGGCAGCUACAUACGUAAA [theeternabot_exclusion_MS2_Theo_B_41] | – | – | – | 35.7 | 58.9 | – | 51.9 | – |
| UUUUUCGCGGGUGAUACCAGCAGAGUUGUACUGGUCUGGUACAUGAGGAUCACCCAUGUUUGCCCUUGGCAGCGCUCGGGAGAAG [#23 Exclusion-TheophyllineB] | – | – | – | 29.3 | 32.1 | 44.4 | 24.1 | apparent KD of MS2 coat protein (MS2 coat protein [2]; input ligand: none): 19.8 nM |
| UUUUUCGUAGGUUAUAGUUUAGAAACUGAAGGAGCGUGGUAAUACACAGGUAGGUCGCAGAUUUUACAUGAGGAUCACCCAUGUU [JR_ExcArginiA_Sub013] | – | – | – | 23.5 | 27.6 | 25.1 | 22.7 | apparent KD of MS2 coat protein (MS2 coat protein [2]; input ligand: none): 24.1 nM |

From the supplement of paper PMC9170038
